{
  "source": "patent US20120301433A1",
  "about": "“BACTERIOPHAGES EXPRESSING AMYLOID PEPTIDES AND USES THEREOF” (priority 2009, published 2012)",
  "biological_target": "amyloid-b1-42 peptide (UniProt P05067)",
  "sequence (P05067 672-713 limits assumed)": "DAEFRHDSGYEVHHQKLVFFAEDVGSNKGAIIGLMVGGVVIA",
  "assay": "cell-based or functional assay",
  "data": [
    {"substance": "T7-RRR-CsgB133-142-PPP (from UniProt P19727 1-348)", "values": [
      {"measurement": "Aβ:peptide molar ratio at the doubling of the lag time", "result": 70000},
      {"measurement": "phage concentration that doubles the lag time of Aβ fiber formation", "result": "5e+07", "unit": "PFU/mL"}
    ]}
  ]
}
